Target: T1, complex of LRP1 and NMDA receptor (Rattus norvegicus, UniProt G3V928)
T1 construct: endogenous in cells
Assay: Immune precipitation of LRP1-NMDA receptor complex from RGC
Assay type: cell-based
Details: LP added to RGC culture, cells collected in 15 minutes; anti-NMDA receptor 2B immune precipitation
Method: LP was added to a culture liquid of the retinal glia cells and the cells were collected in 15 minutes, followed by the immune precipitation as will be described below. For the immune precipitation, a rabbit anti-NMDA receptor 2B antibody was used, and the Western blotting was performed for LRP1 and NMDA receptor 2B.
The immune precipitation was carried out in the manner as will be described below. Specifically, the co-immunoprecipitation was performed in accordance with procedures of May et al. (May et al., 2004) by using a mixed solution prepared by adding a RGC dissolved solution to a mixed solution of a complete EDTA-free protease inhibitor cocktail (Roche, Mannheim, Germany) and a PhosSTOP phosphatase inhibitor cocktail (Roche) and a mixture of 10 mM Tris-HCl (pH7.4), 150 mM NaCl, 1 mM MgCl2, 1 mM CaCl2 and 1% Triton X-100. RGC was washed once with HBSS and collected on a 96-well plate using 40 μl per well of a dissolving buffer. The dissolved solutions from wells 9-12 were combined in each group. The RGC dissolved solution was passed fifteen times through a 22-gauge needle and then centrifuged at 15,000×g for 15 minutes at 4° C. The resulting supernatant was pretreated at 4° C. for 1 hour with 40 μl of 50% equilibrated protein G-Sepharose (GE Healthcare, Buckinghamshire, UK), and the Sepharose beads were removed by centrifugation. […]

T1 sequence (G3V928 20-3944 limits assumed, one chain of several): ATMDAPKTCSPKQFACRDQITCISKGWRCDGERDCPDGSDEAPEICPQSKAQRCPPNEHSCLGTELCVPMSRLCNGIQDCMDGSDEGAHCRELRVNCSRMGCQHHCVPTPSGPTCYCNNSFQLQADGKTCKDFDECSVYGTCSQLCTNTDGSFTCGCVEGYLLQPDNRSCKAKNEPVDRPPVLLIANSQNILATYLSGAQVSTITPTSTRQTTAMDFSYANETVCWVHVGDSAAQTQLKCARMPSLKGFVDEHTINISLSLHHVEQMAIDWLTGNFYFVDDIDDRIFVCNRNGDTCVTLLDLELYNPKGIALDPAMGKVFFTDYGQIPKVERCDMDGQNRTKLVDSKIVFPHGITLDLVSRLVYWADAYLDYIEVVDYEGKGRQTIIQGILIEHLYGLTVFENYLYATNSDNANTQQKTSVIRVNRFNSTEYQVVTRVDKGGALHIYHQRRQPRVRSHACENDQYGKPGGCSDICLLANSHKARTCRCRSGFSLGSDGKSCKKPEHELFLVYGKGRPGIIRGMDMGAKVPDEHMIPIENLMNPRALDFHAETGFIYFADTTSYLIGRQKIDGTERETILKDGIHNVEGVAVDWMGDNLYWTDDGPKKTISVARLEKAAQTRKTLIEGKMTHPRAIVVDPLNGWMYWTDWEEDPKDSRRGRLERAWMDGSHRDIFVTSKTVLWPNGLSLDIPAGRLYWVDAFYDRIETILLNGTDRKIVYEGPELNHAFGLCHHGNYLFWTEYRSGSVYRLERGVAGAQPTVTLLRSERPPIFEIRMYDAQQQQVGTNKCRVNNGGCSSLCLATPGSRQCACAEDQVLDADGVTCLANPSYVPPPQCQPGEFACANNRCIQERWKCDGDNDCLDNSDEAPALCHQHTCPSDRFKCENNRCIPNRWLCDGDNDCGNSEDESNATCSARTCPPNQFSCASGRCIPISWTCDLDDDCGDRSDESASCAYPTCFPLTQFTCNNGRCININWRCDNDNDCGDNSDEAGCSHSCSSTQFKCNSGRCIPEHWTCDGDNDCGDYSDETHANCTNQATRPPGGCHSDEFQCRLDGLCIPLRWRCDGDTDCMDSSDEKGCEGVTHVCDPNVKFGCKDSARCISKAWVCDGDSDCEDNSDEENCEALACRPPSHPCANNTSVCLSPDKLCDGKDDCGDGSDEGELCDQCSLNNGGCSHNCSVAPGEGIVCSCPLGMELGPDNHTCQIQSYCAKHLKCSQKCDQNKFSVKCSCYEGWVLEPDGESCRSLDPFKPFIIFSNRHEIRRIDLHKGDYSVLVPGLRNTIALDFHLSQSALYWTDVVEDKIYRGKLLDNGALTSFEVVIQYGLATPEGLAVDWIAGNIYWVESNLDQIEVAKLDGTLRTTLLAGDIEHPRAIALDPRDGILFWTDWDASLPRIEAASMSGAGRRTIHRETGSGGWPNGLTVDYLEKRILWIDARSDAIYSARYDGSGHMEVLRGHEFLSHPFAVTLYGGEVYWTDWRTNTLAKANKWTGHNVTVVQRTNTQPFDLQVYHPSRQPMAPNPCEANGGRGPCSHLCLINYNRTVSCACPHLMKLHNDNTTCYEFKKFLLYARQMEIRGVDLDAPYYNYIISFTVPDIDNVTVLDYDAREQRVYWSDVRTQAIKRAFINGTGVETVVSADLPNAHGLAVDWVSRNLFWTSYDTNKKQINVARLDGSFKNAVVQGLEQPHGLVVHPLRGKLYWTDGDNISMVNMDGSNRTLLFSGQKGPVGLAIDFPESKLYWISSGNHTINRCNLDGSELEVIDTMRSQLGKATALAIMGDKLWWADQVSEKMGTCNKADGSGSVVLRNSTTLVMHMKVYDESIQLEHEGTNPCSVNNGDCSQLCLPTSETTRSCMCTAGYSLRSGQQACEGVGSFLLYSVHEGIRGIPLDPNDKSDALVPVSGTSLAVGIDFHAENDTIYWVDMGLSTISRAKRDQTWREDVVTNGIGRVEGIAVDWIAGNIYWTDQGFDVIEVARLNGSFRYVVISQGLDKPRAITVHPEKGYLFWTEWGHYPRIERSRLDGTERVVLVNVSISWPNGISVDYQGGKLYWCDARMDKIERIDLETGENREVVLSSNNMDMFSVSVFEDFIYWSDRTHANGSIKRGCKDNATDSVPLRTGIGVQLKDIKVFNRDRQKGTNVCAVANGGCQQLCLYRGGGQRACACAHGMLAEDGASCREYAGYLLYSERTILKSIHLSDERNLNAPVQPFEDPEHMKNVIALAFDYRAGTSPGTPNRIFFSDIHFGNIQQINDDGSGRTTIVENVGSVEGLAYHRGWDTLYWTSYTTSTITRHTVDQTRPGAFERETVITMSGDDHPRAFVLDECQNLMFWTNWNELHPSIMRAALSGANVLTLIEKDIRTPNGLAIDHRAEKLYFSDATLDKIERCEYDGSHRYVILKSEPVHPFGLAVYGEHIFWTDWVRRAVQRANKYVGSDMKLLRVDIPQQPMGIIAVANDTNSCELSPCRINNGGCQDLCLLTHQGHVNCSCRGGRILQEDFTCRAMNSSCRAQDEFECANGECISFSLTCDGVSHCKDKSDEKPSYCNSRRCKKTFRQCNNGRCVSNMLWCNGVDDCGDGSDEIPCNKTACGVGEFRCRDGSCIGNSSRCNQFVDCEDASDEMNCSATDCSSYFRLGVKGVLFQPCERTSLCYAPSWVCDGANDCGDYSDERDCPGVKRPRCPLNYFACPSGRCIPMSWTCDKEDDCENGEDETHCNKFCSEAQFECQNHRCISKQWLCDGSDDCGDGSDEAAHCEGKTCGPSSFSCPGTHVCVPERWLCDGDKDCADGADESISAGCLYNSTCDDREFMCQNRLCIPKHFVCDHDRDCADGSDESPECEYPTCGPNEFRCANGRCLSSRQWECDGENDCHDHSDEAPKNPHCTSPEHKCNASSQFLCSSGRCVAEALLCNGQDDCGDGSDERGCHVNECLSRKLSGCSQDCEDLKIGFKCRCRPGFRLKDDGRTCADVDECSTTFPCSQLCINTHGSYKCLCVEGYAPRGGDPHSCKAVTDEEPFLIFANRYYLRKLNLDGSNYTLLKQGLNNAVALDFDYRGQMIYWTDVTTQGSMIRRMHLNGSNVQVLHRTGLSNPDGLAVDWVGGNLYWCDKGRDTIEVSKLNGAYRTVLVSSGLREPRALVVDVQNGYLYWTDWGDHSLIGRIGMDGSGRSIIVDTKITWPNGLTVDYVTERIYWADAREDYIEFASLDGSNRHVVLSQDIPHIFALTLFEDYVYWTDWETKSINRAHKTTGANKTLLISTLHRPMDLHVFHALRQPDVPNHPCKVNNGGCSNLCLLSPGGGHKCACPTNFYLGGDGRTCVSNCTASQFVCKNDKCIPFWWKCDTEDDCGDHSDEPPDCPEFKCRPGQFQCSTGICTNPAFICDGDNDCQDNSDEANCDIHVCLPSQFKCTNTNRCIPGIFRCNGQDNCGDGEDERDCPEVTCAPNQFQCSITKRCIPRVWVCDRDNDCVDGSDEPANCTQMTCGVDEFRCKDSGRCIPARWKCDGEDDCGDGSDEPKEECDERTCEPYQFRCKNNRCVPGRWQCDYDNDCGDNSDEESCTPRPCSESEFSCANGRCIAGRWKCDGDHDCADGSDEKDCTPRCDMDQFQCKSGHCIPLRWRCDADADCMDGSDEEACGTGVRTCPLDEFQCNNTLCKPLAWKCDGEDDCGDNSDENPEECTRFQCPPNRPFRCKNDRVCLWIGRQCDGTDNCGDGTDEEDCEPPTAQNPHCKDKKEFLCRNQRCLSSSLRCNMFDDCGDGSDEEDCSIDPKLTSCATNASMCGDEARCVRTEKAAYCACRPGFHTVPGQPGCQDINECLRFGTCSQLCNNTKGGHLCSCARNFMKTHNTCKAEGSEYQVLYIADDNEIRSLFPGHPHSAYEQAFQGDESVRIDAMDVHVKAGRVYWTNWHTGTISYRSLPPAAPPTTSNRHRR

Substance: LP: reconstituted lipoprotein of POPC, cholesterol and recombinant human apolipoprotein E3
- formation of a complex of LRP1 and NMDA receptor: promotes

From patent publication US20140228299A1, “PROPHYLACTIC AND THERAPEUTIC AGENT FOR NEUROLOGICAL DISEASES USING LIPOPROTEINS AND PROPHYLACTIC AND THERAPEUTIC METHOD FOR NEUROLOGICAL DISEASES” (National University Corporation Tokyo Medical and Dental …, priority 2011, published 2014)
